Assay results published in patent US5910570.

Key:
[1] = molecular target: bovine cytochrome C, native (bovine) (UniProt P62894)
[2] = molecular target: bovine cytochrome C, reduced and carboxymethylated (bovine) (UniProt P62894)
[3] = molecular target: T1, bovine rhodanese, native (bovine) (UniProt P00586)
T1 sequence: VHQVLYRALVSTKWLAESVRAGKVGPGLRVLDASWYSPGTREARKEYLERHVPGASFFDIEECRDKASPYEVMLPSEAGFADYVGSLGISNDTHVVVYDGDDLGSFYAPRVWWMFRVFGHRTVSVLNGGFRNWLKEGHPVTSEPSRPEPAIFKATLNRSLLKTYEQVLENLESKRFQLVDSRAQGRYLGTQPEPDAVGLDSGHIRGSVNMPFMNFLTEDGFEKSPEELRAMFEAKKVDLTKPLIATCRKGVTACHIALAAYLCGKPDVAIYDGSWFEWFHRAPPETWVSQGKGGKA

[4] = molecular target: T2, bovine rhodanese, reduced and carboxymethylated (bovine) (UniProt P00586)
T2 sequence (chain, reduced and carboxymethylated): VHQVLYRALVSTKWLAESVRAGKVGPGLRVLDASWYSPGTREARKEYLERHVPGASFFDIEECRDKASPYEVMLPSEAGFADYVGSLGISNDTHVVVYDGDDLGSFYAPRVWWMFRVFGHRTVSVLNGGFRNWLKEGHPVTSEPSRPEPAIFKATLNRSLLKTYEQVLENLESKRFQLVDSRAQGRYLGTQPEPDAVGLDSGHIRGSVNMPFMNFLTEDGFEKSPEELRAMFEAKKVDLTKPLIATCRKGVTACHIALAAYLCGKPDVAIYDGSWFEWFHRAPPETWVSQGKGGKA

[5] = molecular target: myelin basic protein
[6] = molecular target: T3, subtilisin, native (Bacillus amyloliquefaciens (Bacillus velezensis)) (UniProt P00782)
T3 sequence: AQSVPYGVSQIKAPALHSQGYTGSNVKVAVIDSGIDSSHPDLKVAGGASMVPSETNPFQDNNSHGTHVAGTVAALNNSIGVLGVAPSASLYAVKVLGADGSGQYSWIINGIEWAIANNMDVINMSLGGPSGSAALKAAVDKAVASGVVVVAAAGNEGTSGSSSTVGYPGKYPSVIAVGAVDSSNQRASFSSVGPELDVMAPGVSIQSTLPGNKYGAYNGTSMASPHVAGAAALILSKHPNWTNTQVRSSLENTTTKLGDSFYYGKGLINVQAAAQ

[7] = molecular target: T4, subtilisin, reduced and carboxymethylated (Bacillus amyloliquefaciens (Bacillus velezensis)) (UniProt P00782)
T4 sequence (chain, reduced and carboxymethylated): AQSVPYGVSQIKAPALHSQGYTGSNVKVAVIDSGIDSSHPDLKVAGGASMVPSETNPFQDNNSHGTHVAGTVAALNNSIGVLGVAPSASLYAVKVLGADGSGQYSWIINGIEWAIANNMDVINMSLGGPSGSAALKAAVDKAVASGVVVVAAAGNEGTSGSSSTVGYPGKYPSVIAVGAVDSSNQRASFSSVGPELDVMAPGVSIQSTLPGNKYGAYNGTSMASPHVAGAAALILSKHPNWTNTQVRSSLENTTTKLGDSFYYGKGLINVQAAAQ

[8] = molecular target: T5, synthetic acceptor peptide Arg-Ser-Pro-Pro-Pro (RSPPP)
T5 sequence (peptide): RSPPP

[9] = molecular target: T6, synthetic acceptor peptide Arg-Thr-Pro-Pro-Pro (RTPPP)
T6 sequence (peptide): RTPPP

[10] = molecular target: synthetic acceptor peptide Pro-Pro-Ala-D-Ser-Thr-D-Ser-Ala-Pro-Gly (PPAdSTdSAPG)
[11] = molecular target: T5, synthetic acceptor peptide Arg-Ser-Pro-Pro-Pro (RSPPP); remark: listed apart in the source
[12] = molecular target: synthetic acceptor peptide Pro-Pro-Ala-D-Ser-Thr-D-Ser-Ala-Pro-Gly (PPAdSTdSAPG); remark: listed apart in the source

myelin basic protein, sequence (P02687 whole entry): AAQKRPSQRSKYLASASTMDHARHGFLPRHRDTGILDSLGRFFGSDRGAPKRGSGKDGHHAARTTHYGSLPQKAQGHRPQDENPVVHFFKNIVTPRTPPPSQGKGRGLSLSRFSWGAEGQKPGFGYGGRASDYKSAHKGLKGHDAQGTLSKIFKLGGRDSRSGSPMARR

B1: UDP-GalNAc:polypeptide N-acetylgalactosaminyltransferase purified from bovine colostrum (enzyme)
chain: GLPAGDVLEPVQKPHEGPGEMGKPVVIPKEDQEKMKEMFKINQFNLMASEMIALNRSLPDVRLEGCKTKVYPDNLPTTSVVIVFHNEAWSTLLRTVHSVINRSPRHMLEEIVLVDDASERDFLKRPLESYVKKLKVPVHVIRMEQRSGLIRARLKGAAVSKGQVITFLDAHCECTVGWLEPLLARIKHDRKTVVCPIIDVISDDTFEYMAGSDMTYGGFNWKLNFRWYPVPQREMDRRKGDRTLPVRTPTMAGGLFSIDRDYFQEIGTYDAGMDIWGGENLEISFRIWQCGGTLEIVTCSHVGHVFRKATPYTFPGGTGQIINKNNRRLAEVWMDEFKNFFYIISPGVTKVDYGDISSRLGLRHKLQCRPFSWYLENIYPDSQIPRHYFSLGEIRNVETNQCLDNMARKENEKVGIFNCHGMGGNQVFSYTANKEIRTDDLCLDVSKLNGPVTMLKCHHLKGNQLWEYDPVKLTLQHVNSNQCLDKATDEDSQVPSIRDCSGSRSQQWLLRNVTLPEIF
modifications: native glycoprotein (peptide N-glycosidase F shifts it by approximately 6 kDa)
A Product formed [1] of less than 0.1 nmol/min/mg, a Product formed [2] of less than 0.1 nmol/min/mg and a Product formed [3] of less than 0.1 nmol/min/mg were found for B1 in this work. The Product formed [4] was 3.3 nmol/min/mg, the Product formed [5] was 22.2 nmol/min/mg and the Product formed [6] was less than 0.1 nmol/min/mg. The Product formed [7] was 0.6 nmol/min/mg, the Vmax/Km [8] was 0.4 M⁻¹ s⁻¹ and the Km [9] was 3.3 mM. It also gave a Vmax/Km [9] of 183 M⁻¹ s⁻¹, a Vmax/Km [10] of 1.2 M⁻¹ s⁻¹ and a Product formed [11] of 0.67 nmol/min/mg. It also gave a Product formed [12] of 2 nmol/min/mg.
